Assays:
Experiment in all cases: SPR
[1] = target: wild-type SARS-CoV-2 Spike receptor-binding domain (SARS-CoV-2) (UniProt P0DTC2)
[2] = target: emorisin (Emergomyces orientalis)
AMSIN (actinomyces) = target: AMSIN (actinomyces)

| Substance | Kd [1] | Kd [2] | Kd (AMSIN (actinomyces)) |
| --- | --- | --- | --- |
| (ΔGFG)AMSIN (peptide) | 119 nM | – | – |
| wild-type SARS-CoV-2 Spike receptor-binding domain (from UniProt P0DTC2 319-527) (domain or fragment) | – | 7.6 nM | 193 nM |

From publication PMC10315472
